This experiment deals with T1, Wild-type CHIPS1-121 (Chemotaxis Inhibitory Protein of Staphylococcus aureus) (Staphylococcus aureus, UniProt A6QIG7 29-149).
T1 construct: His tag cleaved off with enterokinase; also called CHIPSWT
The experiment in a line: flow cytometry of gated blood neutrophils after iv CHIPS, stained with rabbit anti-CHIPS IgG and FITC goat anti-rabbit; the staining does not separate C5aR-bound from FPR-bound CHIPS. (In general: Flow cytometry measures light scatter and fluorescence of single cells or particles in a stream.)

B1: human C5a receptor (C5aR) (receptor)
chain: MDSFNYTTPDYGHYDDKDTLDLNTPVDKTSNTLRVPDILALVIFAVVFLVGVLGNALVVWVTAFEAKRTINAIWFLNLAVADFLSCLALPILFTSIVQHHHWPFGGAACSILPSLILLNMYASILLLATISADRFLLVFKPIWCQNFRGAGLAWIACAVAWGLALLLTIPSFLYRVVREEYFPPKVLCGVDYSHDKRRERAVAIVRLVLGFLWPLLTLTICYTFILLRTWSRRATRSTKTLKVVVAVVASFFIFWLPYQVTGIMMSFLEPSSPTFLLLKKLDSLCVSFAYINCCINPIIYVVAGQGFQGRLRKSLPSLLRNVLTEESVVRESKSFTRSTVDTMAQKTQAV
notes: whole, on cells; also called CD88
With B1, the binding result is given as “binds”.

B2: formylated peptide receptor (FPR) (receptor)
chain: METNSSLPTNISGGTPAVSAGYLFLDIITYLVFAVTFVLGVLGNGLVIWVAGFRMTHTVTTISYLNLAVADFCFTSTLPFFMVRKAMGGHWPFGWFLCKFVFTIVDINLFGSVFLIALIALDRCVCVLHPVWTQNHRTVSLAKKVIIGPWVMALLLTLPVIIRVTTVPGKTGTVACTFNFSPWTNDPKERINVAVAMLTVRGIIRFIIGFSAPMSIVAVSYGLIATKIHKQGLIKSSRPLRVLSFVAAAFFLCWSPYQVVALIATVRIRELLQGMYKEIGIAVDVTSALAFFNSCLNPMLYVFMGQDFRERLIHALPASLERALTEDSTQTSDTATNSTLPSAEVELQAK
notes: whole, on cells
On to B2, for which the binding result is reported as “binds”.

The values above are taken from patent US20120071394A1 (ALLIGATOR BIOSCIENCE, published 2012).
